What all share (type): cell-based
One assay deals with H596 lung cancer cells. The assay is described as follows: cMet pathway agonism by cell proliferation. As to conditions: serum starved cells; titration of test article; 6 days; FIG. 4 and FIG. 6. Here is the method: (§1) cMet pathway agonism of the anti-cMet antibody variant v17427 (HetFc, unmodified hinge) and ADCs comprising variant v17427 stochastically cysteine-conjugated to Drug-Linker 001 or MCvcPABC-MMAE at DAR 4 was assessed by cell proliferation and ELISA to measure for AKT phosphorylation as a downstream indicator of cMET activation.
Cell proliferation: Briefly, H596 lung cancer cells were serum starved overnight (37° C., 5% CO2) by replacing the complete growth medium with serum-free RPMI-1640 (Thermo Fisher Scientific Inc., Waltham, MA; Cat. No. A1049101). Cells were then detached with Cell Dissociation Buffer (Thermo Fisher Scientific Inc., Cat. No. 13151014), resuspended in RPMI-1640 supplemented with 1% FBS (v/v) (Thermo Fisher Scientific Inc., Cat. No. 12483-020) and seeded in 384-well tissue culture plates at a density of 1,000 cells/well. […] After incubation, CellTiter-Glo® reagent (Promega Corporation, Madison, WI; Cat. No. G7570) was spiked in all wells and luminescence corresponding to ATP present in each well was measured using a Synergy™ H1 microplate (BioTek Instruments, Winooski, VT). Based on untreated cells (no test article added), % viability values were calculated using ATP measurement RLU values (Relative Light Units) and plotted against test article concentration using GraphPad Prism 8 software (GraphPad Software, San Diego, CA). […]

The test system of assay [1] is AKT phosphorylation in H596 lung cancer cells. Put plainly: cMet pathway agonism by Phospho-AKT ELISA. As to conditions: 100 nM, up to 60 minutes, FIG. 5A. The procedure: as §1
(§2) Phospho-AKT ELISA: Briefly, H441 or H596 lung cancer cells were detached with Cell Dissociation Buffer, seeded in 24-well tissue culture plates with RPMI-1640+10% FBS at a density of 50,000 cells/well, and incubated overnight (37° C., 5% CO2). Cells were then serum starved overnight (37° C., 5% CO2) by replacing the complete growth medium with serum-free RPMI-1640. […] Lysate protein concentration was assessed by a BCA protein assay (Thermo Fisher Scientific Inc., Cat. No. 23223 and 23224). Phospho-AKT levels in 10 μg of lysate was assessed using the PathScan® Phospho-Akt1 (Ser473) Sandwich ELISA Kit (Cell Signaling Technology, Cat. No. 7160C) as per manufacturer's instructions. Absorbance at 450 nm was measured using a Synergy™ H1 microplate (BioTek Instruments, Winooski, VT). Fold AKT phosphorylation was calculated by subtracting background A450 nm signal from all wells using signal blank wells, and then normalizing to the A450 nm signal of untreated cells at each corresponding timepoint. […]

Assay [2] deals with AKT phosphorylation in H441 lung cancer cells. The assay is described as follows: cMet pathway agonism by Phospho-AKT ELISA. As to conditions: 100 nM, up to 60 minutes, FIG. 5B and FIG. 7. The procedure: as §1, §2

Entries after “also recorded” stand apart in the source; their conditions may differ.

B1: v17429: control antibody, bivalent version of the anti-cMet antibody MetMab (onartuzumab), HetFc (antibody, chains of the INN, looked up, V domains shown)
VH: EVQLVESGGGLVQPGGSLRLSCAASGYTFTSYWLHWVRQAPGKGLEWVGMIDPSNSDTRFNPNFKDRFTISADTSKNTAYLQMNSLRAEDTAVYYCATYRSYVTPLDYWGQGTLVTVSS
VL: DIQMTQSPSSLSASVGDRVTITCKSSQSLLYTSSQKNYLAWYQQKPGKAPKLLIYWASTRESGVPSRFSGSGSGTDFTLTISSLQPEDFATYYCQQYYAYPWTFGQGTKVEIK
modifications: bivalent IgG, HetFc
As for B1, the “H596 proliferation compared to untreated controls” value with H596 lung cancer cells is “dose-dependent increase in H596 proliferation; also recorded: strong dose-dependent increase in proliferation”. For the same molecule, the AKT phosphorylation entry in assay [1] is listed as “strong AKT phosphorylation”; in assay [2], “strong AKT phosphorylation; also recorded: strongly induced phosphorylation”.

The values above are taken from patent US20250222128A1, “ANTIBODY DRUG-CONJUGATES TARGETING C-MET AND METHODS OF USE THEREOF” (Zymeworks BC Inc., priority 2022, published 2025).
